Assay results taken from article PMC3571920.

Target: HIV-1 integrase tagged at the C-terminus with the HA epitope (IN-HA) (HIV-1 (Lai molecular clone))
Experiment: cross-linking; gel filtration fractions 30-32 (IN complex III) of extracts of infected LEDGF/p75 knock-down TL34 cells, 2 h p.i.; 0.25 to 2 mM EGS, 30 min at room temperature, 20 mM HEPES-KOH pH 7.2, 0.3 M KCl; SDS-PAGE and anti-HA-HRP blot

Work on “HIV-1 integrase tagged at the C-terminus with the HA epitope (IN-HA) (enzyme)” yielded a stoichiometry N of 4.
